Source: patent publication US20160251440A1

Tests used:
[1] = target: human IL-23R, cell-expressed (human) (UniProt Q5VWK5); assay: cell-based or functional assay
[2] = target: human CXCR4 (on cells, viral lipoparticles or membrane extracts) (human) (UniProt P61073); assay: cell-based or functional assay
[3] = target: human CXCR4 (on cells, viral lipoparticles or membrane extracts) (human) (UniProt P61073); assay: FACS displacement of 30 nM biotin-SDF-1, Caki-CXCR4 cells
[4] = target: human CXCR4 (on cells, viral lipoparticles or membrane extracts) (human) (UniProt P61073); assay: [125I]-SDF-1 displacement, Hek-CXCR4 membrane extracts
[5] = target: human CXCR4 (on cells, viral lipoparticles or membrane extracts) (human) (UniProt P61073); assay: FACS, Caki-CXCR4 cells
[6] = target: human CXCR4 (on cells, viral lipoparticles or membrane extracts) (human) (UniProt P61073); assay: ELISA on coated CXCR4 viral lipoparticles (upper right panel)
[7] = target: recombinant IL-3Rα ectodomain (human) (UniProt P26951); assay: ELISA on recombinant IL-3Ra ectodomain (panel 'IL-3Ra ELISA', lower left)
Sequence of recombinant IL-3Rα ectodomain (human) (P26951 19-305): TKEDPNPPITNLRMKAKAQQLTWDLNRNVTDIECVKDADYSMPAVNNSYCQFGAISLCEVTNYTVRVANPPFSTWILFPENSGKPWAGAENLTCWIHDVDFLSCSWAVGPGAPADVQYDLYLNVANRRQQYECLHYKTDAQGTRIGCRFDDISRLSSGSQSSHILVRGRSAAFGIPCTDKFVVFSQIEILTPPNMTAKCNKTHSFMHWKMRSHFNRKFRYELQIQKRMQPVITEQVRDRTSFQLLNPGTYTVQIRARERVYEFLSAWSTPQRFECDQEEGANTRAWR

Sequence of human CXCR4 (on cells, viral lipoparticles or membrane extracts) (human) (P61073 whole entry, the tested form may be a part): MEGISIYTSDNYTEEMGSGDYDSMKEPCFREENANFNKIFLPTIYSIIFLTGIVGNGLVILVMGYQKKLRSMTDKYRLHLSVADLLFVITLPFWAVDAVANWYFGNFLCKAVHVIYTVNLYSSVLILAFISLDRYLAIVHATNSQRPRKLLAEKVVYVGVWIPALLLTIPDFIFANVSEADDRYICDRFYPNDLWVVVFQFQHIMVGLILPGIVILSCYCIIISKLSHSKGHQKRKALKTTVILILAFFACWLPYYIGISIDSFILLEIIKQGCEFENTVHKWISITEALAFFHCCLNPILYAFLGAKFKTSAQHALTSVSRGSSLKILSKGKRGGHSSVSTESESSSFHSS
Sequence of human IL-23R, cell-expressed (human) (Q5VWK5 24-629): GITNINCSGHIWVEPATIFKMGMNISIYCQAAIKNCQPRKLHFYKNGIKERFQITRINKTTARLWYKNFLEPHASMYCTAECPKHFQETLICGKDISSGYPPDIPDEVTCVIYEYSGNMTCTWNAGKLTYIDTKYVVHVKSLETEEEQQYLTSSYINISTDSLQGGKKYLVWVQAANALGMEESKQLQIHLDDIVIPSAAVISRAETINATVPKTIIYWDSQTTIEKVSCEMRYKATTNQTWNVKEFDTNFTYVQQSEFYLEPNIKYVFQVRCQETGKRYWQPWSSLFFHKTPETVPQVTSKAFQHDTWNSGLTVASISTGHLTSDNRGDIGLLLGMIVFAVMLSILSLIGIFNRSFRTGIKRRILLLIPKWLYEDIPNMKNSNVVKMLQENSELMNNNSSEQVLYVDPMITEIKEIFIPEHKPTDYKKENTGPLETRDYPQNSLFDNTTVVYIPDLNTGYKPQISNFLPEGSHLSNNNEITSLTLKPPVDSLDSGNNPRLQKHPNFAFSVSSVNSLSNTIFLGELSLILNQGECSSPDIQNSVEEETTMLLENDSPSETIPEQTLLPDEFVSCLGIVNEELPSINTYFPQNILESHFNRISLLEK

B1: IL23R#19-35GS-CD4#8 (bispecific antibody)
chain: EVQLVESGGGLVQPGGSLTLSCVASGRTFSTDVMGWFRQAPGKEREFVAAHRTSGISTVYAASVKGRFTISRDNAKNTVYLGMKSLKPEDTAVYVCAAGSDASGGYDYWGQGTLVTVSSGGGGSGGGGSGGGGSGGGGSGGGGSGGGGSGGGGSEVQLVESGGGSVQPGGSLTLSCGTSGRTFNVMGWFRQAPGKEREFVAAVRWSSTGIYYTQYADSVKSRFTISRDNAKNTVYLEMNSLKPEDTAVYYCAADTYNSNPARWDGYDFRGQGTLVTVSS
[1]
  IC50, IL-17 release, PBMC D840: 58.9 nM
  fold ctrl, IL-17 release: 1.7 fold

B2: 238D4 (VHH, from a related filing)
VHH: EVQLMESGGGLVQAGGSLRLSCAASGRTFNNYAMGWFRRAPGKEREFVAAITRSGVRSGVSAIYGDSVKDRFTISRDNAKNTLYLQMNSLKPEDTAVYTCAASAIGSGALRRFEYDYSGQGTQVTVSS
[2]
  IC50, SDF-1 chemotaxis, Jurkat: 7.6 nM
[3]
  IC50: 2.1 nM
[4]
  Ki: 5.4 nM
[5]
  EC50: 3.4 nM

B3: 14D09-35GS-55A01 (bispecific antibody)
chain: EVQLVESGGGLVQAGGSLRLSCVASGISSSKRNMGWYRQAPGKQRESVATISSGGNKDYTDAVKDRFTISRDTTKNTVYLQMNSLKPEDTAVYYCKIEAGTGWATRRGYTYWGQGTLVTVSSGGGGSGGGGSGGGGSGGGGSGGGGSGGGGSGGGGSEVQLVESGGGSVQAGGSLRLSCTTSGRALNMYVMGWFRQAPGNEREFVAATSSSGGSTSYPDSVKGRFTISRDNAKNTVYLQMNSLKPEDTAAYRCAASPYVSTPTMNILEEYRYWGQGTLVTVSS
[6]
  EC50 (read off the curve): 7 nM
[2]
  Fold inc. vs CXCR4#1, Jurkat E6-1: 0.87 fold
  Fold inc. vs CXCR4#1, MOLM-13: 2.39 fold
  IC50, CXCL-12 chemotaxis, Jurkat E6-1: 12 nM
  IC50, CXCL-12 chemotaxis, MOLM-13: 3.6 nM
[7]
  EC50 (read off the curve): 1 nM
